Experimental data published in patent US20180022822A1 (MABIMMUNE DIAGNOSTICS, published 2018).
Changes are numbered by the printed parent chain. Values belong to the binder of their own block, whether it stands above or below them.

How the values were obtained:
[1] = target: T1, recombinant human Fibroblast Activation Protein (FAP) with N-terminus 6x histidine tag (human, UniProt Q12884 26-760); assay: direct ELISA: rFAP directly coated (FAP)
T1 construct: Bought protein; also called rFAP; rhFAP
T1 sequence: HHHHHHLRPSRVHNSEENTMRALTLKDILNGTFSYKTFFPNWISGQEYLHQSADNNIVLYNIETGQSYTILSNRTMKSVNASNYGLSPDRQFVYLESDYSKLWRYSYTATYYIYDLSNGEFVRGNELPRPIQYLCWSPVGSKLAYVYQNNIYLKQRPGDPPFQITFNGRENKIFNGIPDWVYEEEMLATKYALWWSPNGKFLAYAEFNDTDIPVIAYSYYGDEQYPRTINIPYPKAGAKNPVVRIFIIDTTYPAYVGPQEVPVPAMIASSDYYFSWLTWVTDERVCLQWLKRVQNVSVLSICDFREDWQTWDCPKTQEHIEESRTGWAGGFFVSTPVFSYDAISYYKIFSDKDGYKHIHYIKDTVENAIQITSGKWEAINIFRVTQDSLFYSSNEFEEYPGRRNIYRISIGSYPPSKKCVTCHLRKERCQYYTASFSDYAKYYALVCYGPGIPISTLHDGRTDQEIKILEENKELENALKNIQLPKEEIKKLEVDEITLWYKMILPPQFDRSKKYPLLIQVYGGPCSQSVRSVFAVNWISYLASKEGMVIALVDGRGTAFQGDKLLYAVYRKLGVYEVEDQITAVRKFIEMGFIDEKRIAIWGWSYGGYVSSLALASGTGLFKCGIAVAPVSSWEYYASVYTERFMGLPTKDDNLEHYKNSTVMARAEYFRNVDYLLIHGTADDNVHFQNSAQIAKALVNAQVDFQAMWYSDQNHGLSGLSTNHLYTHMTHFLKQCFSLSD

[2] = target: T2, cFAP (mixture of three FAP peptides) (human); assay: direct ELISA: coated mixture of three FAP peptides (cFAP)
T2 construct: A mixture of three separate peptides coated together, not a complex; The three chains are the three components; also called directly coated FAP peptides mixture
T2 peptide 1: HYIKDTVENAIQITS
T2 peptide 2: GWSYGGYVSSLALAS
T2 peptide 3: QVDFQAMWYSDQNHGL

[3] = target: T3, bovine serum albumin (BSA) (bovine, UniProt P02769 25-607); assay: direct ELISA: BSA coated directly on the plate [continued) H]
T3 construct: Negative control antigen in the ELISAs

[4] = target: T1, recombinant human Fibroblast Activation …; assay: capture ELISA: His-tagged rFAP captured by coated anti-His antibody (sFAP)
Experimental: (§1) For the capture ELISA, the microplates were coated with mouse anti-His monoclonal antibody (Clontech) diluted to a concentration of 3 μg/ml in PBS, the plates were then blocked, FAP or BSA were diluted to a concentration of 2 μg/ml in PBS and added to the plates to be captured. The binding efficiency of the antibodies was then tested.
The EC₅₀ values were estimated by a non-linear regression using GraphPad Prism (San Diego, USA) software.

[5] = target: T1, recombinant human Fibroblast Activation …; assay: direct ELISA: rFAP coated directly on the plate, antibody titrated, OD 450 nm; the curve reaches no upper plateau [continued) H]
[6] = target: T1, recombinant human Fibroblast Activation …; assay: capture ELISA: His-tagged rFAP captured by coated anti-His antibody (anti-His+rFAP), antibody titrated, OD 450 nm; the curve reaches no upper plateau [continued) G]
Experimental: as §1

[7] = target: T1, recombinant human Fibroblast Activation …; assay: direct ELISA: rFAP directly coated
[8] = target: T1, recombinant human Fibroblast Activation …; assay: direct ELISA: rFAP coated directly on the plate, antibody titrated, OD 450 nm [continued) J]
[9] = target: T1, recombinant human Fibroblast Activation …; assay: capture ELISA: His-tagged rFAP captured by coated anti-His antibody (anti-His+rFAP), antibody titrated, OD 450 nm [continued) I]
Experimental: as §1

[10] = target: T4, FAP peptide 125 (497-ALKNIQLPKEEIKKL-511) (human); assay: pepscan, spotted 15-mer peptides
T4 construct: Linear 15-mer spotted on a nitrocellulose membrane
T4 peptide: ALKNIQLPKEEIKKL
Experimental: (§2) Binding capacity of the antibodies was tested on these peptides spotted onto a nitrocellulose membrane (JPT Peptide Technologies, Berlin, Germany) and using HRP-conjugated donkey anti-human IgG secondary antibody (Jackson immunoResearch, Newmarket, UK) followed by detection of HRP activity (FIGS. 4A and C). In brief, epitope mapping was performed using scans of overlapping peptides. The entire sequences of FAP were synthesized as a total of 188 linear 15-mer peptides with an 11 amino acid overlap between individual peptides. Those peptides were spotted onto nitrocellulose membranes (JPT Peptide Technologies, Berlin, Germany). The membrane was activated for 5 min in methanol and washed in TBS for 10 min at RT. Non-specific binding sites were blocked for 2 h at RT with Roti®-Block (Carl Roth GmbH+Co. KG, Karlsruhe, Germany). Human antibodies (1 μg/ml) were incubated in Roti®-Block for 3 h at RT. Binding of primary antibody was determined using HRP-conjugated donkey anti-human IgG secondary antibody. Blots were developed and evaluated using ECL and ImageQuant 350 detection (GE Healthcare, Otelfingen, Switzerland).

[11] = target: T5, FAP peptide 126 (501-IQLPKEEIKKLEVDE-515) (human); assay: pepscan, spotted 15-mer peptides
T5 construct: Linear 15-mer spotted on a nitrocellulose membrane
T5 peptide: IQLPKEEIKKLEVDE
Experimental: as §2

[12] = target: T3, bovine serum albumin (BSA); assay: direct ELISA: BSA coated directly on the plate [continued) F]
[13] = target: T1, recombinant human Fibroblast Activation …; assay: direct ELISA: rFAP coated directly on the plate, antibody titrated, OD 450 nm [continued) F]
[14] = target: T1, recombinant human Fibroblast Activation …; assay: capture ELISA: His-tagged rFAP captured by coated anti-His antibody (anti-His+rFAP), antibody titrated, OD 450 nm [continued) E]
Experimental: as §1

[15] = target: T3, bovine serum albumin (BSA); assay: direct ELISA: BSA coated directly on the plate [continued) D]

T3 sequence (P02769 25-607 limits assumed): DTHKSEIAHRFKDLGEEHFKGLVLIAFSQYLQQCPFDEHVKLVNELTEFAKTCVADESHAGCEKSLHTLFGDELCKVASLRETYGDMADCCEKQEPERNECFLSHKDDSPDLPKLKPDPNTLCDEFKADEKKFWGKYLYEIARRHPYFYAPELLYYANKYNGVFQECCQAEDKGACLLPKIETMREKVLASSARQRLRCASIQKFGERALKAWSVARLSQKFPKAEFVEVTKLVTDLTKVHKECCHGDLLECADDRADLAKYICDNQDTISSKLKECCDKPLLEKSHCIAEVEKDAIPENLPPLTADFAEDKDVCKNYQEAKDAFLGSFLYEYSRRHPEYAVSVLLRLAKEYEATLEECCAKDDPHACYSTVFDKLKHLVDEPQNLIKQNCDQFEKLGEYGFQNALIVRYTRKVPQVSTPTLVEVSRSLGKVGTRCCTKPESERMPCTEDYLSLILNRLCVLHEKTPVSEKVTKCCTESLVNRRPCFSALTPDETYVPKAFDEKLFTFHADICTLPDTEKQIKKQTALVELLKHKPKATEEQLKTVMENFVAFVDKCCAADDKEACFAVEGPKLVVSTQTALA

- EC50 [1]: 2.9 nM
- binding result [2]: no binding
- binding result [3]: no binding
- EC50 [4]: 1.33 nM
- EC50 [5]: 86.5 nM
- EC50 [6]: 118 nM
B1: NI-206.20A8 (antibody, V domains shown)
VH: EVQLVESGGGLVQPGGSLKLSCAGSGLDLSASAVHWVRQASGKGLEWIGRIRSKPNHYATTYLASVRGRFILSRDDSENTAYLQMNSLRTEDTAVYYCRIGILNSDHWGRGTLVTVSS
VL: QSVLTQPPSASGTPGQTVIISCSGSSSNLGRKTLNWYQQLPGAAPKLLIFKNDQRASGVPDRFSASKSGTSASLTISGLQSDDEADYYCGTWDDSLDNWVFGGGTKVTVL
notes: Recombinant complete human IgG1

- binding result [7]: no binding
- EC50 [2]: 0.12 nM
B2: NI-206.22F7 (antibody, V domains shown)
VH: EVQLVETGGGVVQPGRSLRLSCAASGFSFSTHGMYWVRQPPGKGLEWVAVISYDGSDKKYADSVKGRFTISRDNSKNTVYLEMSSVRAEDTALYYCFCRRDAFDLWGQGTMVTVSS
VL: SYVLTQPPSVSVSPGQTARITCSGDALPKKYAYWYQQKSGQAPVLVIYEDTKRPSGIPERFSGSSSGTMATLTISGAQVEDEADYYCYSTDSSGNYWVFGGGTEVTVL
notes: as for B1

- EC50 [1]: 86.5 nM
- binding result [2]: no binding
- EC50 [4]: 118 nM
- EC50 [8]: 3.54 nM
- EC50 [9]: 0.272 nM
B3: NI-206.6D3 (antibody, V domains shown)
VH: EVQLVESGGGLVKPGESLRLSCAASGFTFSKAWMNWVRQGPGKGLEWVGRVKSKTDGGTTDYAAPVKGRFTISRDDSKDTVFLQMNSLKTEDTAVYYCSIQFIVVGDRGRDDQYMDVWGKGTTVTVSS
VL: SYVLTQPPSVSVSPGQTARITCSGDALPKQYAFWYQQKPGQAPVIMIYKDNQRPSGIPERFSGSSSGTTVTLTISGVQTEDEADYYCQSADSTNTHVVFGGGTKLTVL
notes: Recombinant complete human IgG1; Cy5-labelled in flow cytometry

- binding result [10]: binds
- binding result [11]: binds
- EC50 [1]: 3.54 nM
- binding result [2]: no binding
- binding result [12]: no binding
- EC50 [4]: 0.272 nM
- EC50 [13]: 2.9 nM
- EC50 [14]: 1.33 nM
B4: NI-206.18H2 (antibody, V domains shown)
VH: QVQLQESGPRLVKPSETLSLTCTVSGYSISNGYYWGWIRQPPGQGLEWIASVWHSGNTYHNPSLKSRVTILVDTLKNQFSLNLKSVTAADTALYYCARSYTRNDVGAFETWGQGTMVTVSS
VL: SYELTQPPSVSVSPGQTARIACSGDELPKRYAYWYQQKSGQAPVLVMYEDTKRPSGIPERLSGSSSGTVTTLTISGAQVEDEADYYCYSTAPSGNHTFVFGTGTRVTVL
notes: as for B3

- EC50 [1]: 10.5 nM
- binding result [2]: no binding
- EC50 [4]: 50.2 nM
B5: NI-206.17A6 (antibody, V domains shown)
VH: QVQLQESGPGLVRSTETLSLTCLVSGDSINSHYWSWLRQSPGRGLEWIGYIYYTGPTNYNPSLKSRVSISLGTSKDQFSLKLSSVTAADTARYYCARNKVFWRGSDFYYYMDVWGKGTTVTVSS
VL: EIVLTQSPGTLSLSLGERATLSCRASQSLANNYLAWYQQKPGQAPRLLMYDASTRATGIPDRFSGSGSGTDFTLTISRLEPEDFAVYYCQQFVTSHHMYIFGQGTKVEIK
notes: Recombinant complete human IgG1 with a kappa light chain

- EC50 [1]: 0.33 nM
- binding result [2]: no binding
- EC50 [4]: 3.36 nM
B6: NI-206.27E8 (antibody, V domains shown)
VH: EVQLVESGGGLVEPGGSLRLSCAASGFTFSDAWMNWVRQAPGKGLEWVGRIKTKSDGGTTDYAAPVRGRFSISRDDSKNTLFLEMNSLKTEDTAIYYCFITVIVVSSESPLDHWGQGTLVTVSS
VL: SYELTQPPSVSVSPGQTARITCSGDELPKQYAYWYQQKPGQAPVLVIYKDRQRPSGIPERFSGSSSGTTVTLTISGVQAEDEADYYCQSAYSINTYVIFGGGTKLTVL
notes: as for B3

- EC50 [1]: 1.4 nM
- binding result [2]: no binding
B7: NI-206.12G4 (antibody, V domains shown)
VH: EVQLVESGGGLVKPGGSLRLSCAASGFTFSDYYMSWIRQAPGKGLEWISYISSGSSYTNYADSVKGRFTISRDNAKKSVYLEVNGLTVEDTAVYYCARVRYGDREMATIGGFDFWGQGTLVTVSS
VL: B6 VL with E26A, K38S, R51S, Q52E, Y91D, I93G, N94G, Y96S, V97R
notes: as for B3

- EC50 [1]: 0.096 nM
- binding result [2]: no binding
- binding result [15]: no binding
- EC50 [4]: 0.044 nM
B8: NI-206.59B4 (antibody, V domains shown)
VH: QVQLVQSGAEVKKPGASVKVSCKTSGYTFTDYYIHWVRQAPGQGLEWMGWINPNRGGTNYAQKFQGRVTMTRDTSIATAYMELSRLRSDDTAVYYCATASLKIAAVGTFDCWGQGTLVTVSS
VL: SYELTQPPSVSVSPGQTARITCSGDALSKQYAFWFQQKPGQAPILVIYQDTKRPSGIPGRFSGSSSGTTVTLTISGAQADDEADYYCQSADSSGTYVFGTGTKVTVL
notes: as for B3
